Measured values as given in ChEMBL document CHEMBL1212772.

Legend:
[1] = substrate: CC(C)(O/N=C(\C(=O)N[C@@H]1C(=O)N2C(C(=O)[O-])=C(C[n+]3ccccc3)CS[C@H]12)c1csc(N)n1)C(=O)O; test: (§1) Activity of Pseudomonas aeruginosa IMP-1
[2] = substrate: CC1(C)S[C@@H]2[C@H](NC(=O)Cc3ccccc3)C(=O)N2[C@H]1C(=O)O; test: as §1
[3] = substrate: C[C@@H](O)[C@H]1C(=O)N2C(C(=O)O)=C(SCCNC=N)C[C@H]12; test: as §1
[4] = substrate: C[C@@H](O)[C@H]1C(=O)N2C(C(=O)O)=C(S[C@@H]3CN[C@H](C(=O)N(C)C)C3)[C@H](C)[C@H]12; test: as §1
[5] = substrate: C[C@@H](O)[C@H]1C(=O)N2C(C(=O)O)=C(S[C@@H]3CN[C@H](CNS(N)(=O)=O)C3)[C@H](C)[C@H]12; test: as §1
[6] = substrate: O=C(Cc1cccs1)N[C@@H]1C(=O)N2C(C(=O)[O-])=C(C[n+]3ccccc3)CS[C@H]12; test: as §1
[7] = substrate: CC(C)(O/N=C(\C(=O)N[C@@H]1C(=O)N2C(C(=O)[O-])=C(C[n+]3ccccc3)CS[C@H]12)c1csc(N)n1)C(=O)O; test: (§2) Kcat/Km ratio of Pseudomonas aeruginosa IMP-1
[8] = substrate: CC1(C)S[C@@H]2[C@H](NC(=O)Cc3ccccc3)C(=O)N2[C@H]1C(=O)O; test: as §2
[9] = substrate: C[C@@H](O)[C@H]1C(=O)N2C(C(=O)O)=C(SCCNC=N)C[C@H]12; test: as §2
[10] = substrate: C[C@@H](O)[C@H]1C(=O)N2C(C(=O)O)=C(S[C@@H]3CN[C@H](C(=O)N(C)C)C3)[C@H](C)[C@H]12; test: as §2
[11] = substrate: C[C@@H](O)[C@H]1C(=O)N2C(C(=O)O)=C(S[C@@H]3CN[C@H](CNS(N)(=O)=O)C3)[C@H](C)[C@H]12; test: as §2
[12] = substrate: O=C(Cc1cccs1)N[C@@H]1C(=O)N2C(C(=O)[O-])=C(C[n+]3ccccc3)CS[C@H]12; test: as §2
[13] = substrate: CC(C)(O/N=C(\C(=O)N[C@@H]1C(=O)N2C(C(=O)[O-])=C(C[n+]3ccccc3)CS[C@H]12)c1csc(N)n1)C(=O)O; test: (§3) Activity of Klebsiella pneumoniae KPC-2
[14] = substrate: CC1(C)S[C@@H]2[C@H](NC(=O)Cc3ccccc3)C(=O)N2[C@H]1C(=O)O; test: as §3
[15] = substrate: C[C@@H](O)[C@H]1C(=O)N2C(C(=O)O)=C(SCCNC=N)C[C@H]12; test: as §3
[16] = substrate: C[C@@H](O)[C@H]1C(=O)N2C(C(=O)O)=C(S[C@@H]3CN[C@H](C(=O)N(C)C)C3)[C@H](C)[C@H]12; test: as §3
[17] = substrate: C[C@@H](O)[C@H]1C(=O)N2C(C(=O)O)=C(S[C@@H]3CN[C@H](CNS(N)(=O)=O)C3)[C@H](C)[C@H]12; test: as §3
[18] = substrate: O=C(Cc1cccs1)N[C@@H]1C(=O)N2C(C(=O)[O-])=C(C[n+]3ccccc3)CS[C@H]12; test: as §3
[19] = substrate: CC(C)(O/N=C(\C(=O)N[C@@H]1C(=O)N2C(C(=O)[O-])=C(C[n+]3ccccc3)CS[C@H]12)c1csc(N)n1)C(=O)O; test: (§4) Kcat/Km ratio of Klebsiella pneumoniae KPC-2
[20] = substrate: CC1(C)S[C@@H]2[C@H](NC(=O)Cc3ccccc3)C(=O)N2[C@H]1C(=O)O; test: as §4
[21] = substrate: C[C@@H](O)[C@H]1C(=O)N2C(C(=O)O)=C(SCCNC=N)C[C@H]12; test: as §4
[22] = substrate: C[C@@H](O)[C@H]1C(=O)N2C(C(=O)O)=C(S[C@@H]3CN[C@H](C(=O)N(C)C)C3)[C@H](C)[C@H]12; test: as §4
[23] = substrate: C[C@@H](O)[C@H]1C(=O)N2C(C(=O)O)=C(S[C@@H]3CN[C@H](CNS(N)(=O)=O)C3)[C@H](C)[C@H]12; test: as §4
[24] = substrate: O=C(Cc1cccs1)N[C@@H]1C(=O)N2C(C(=O)[O-])=C(C[n+]3ccccc3)CS[C@H]12; test: as §4

B1: Beta-lactamase IMP-1 (Pseudomonas aeruginosa), Q8G9Q0 (protein)
chain: MNSPKSRALLGFMGAFCLLLVAGAPLSAKSSDHVDLPYNLTATKIDSDVFVVTDRDFYSSNVLVAKMLDGTVVIVSSPFENLGTQTLMDWVAKTMKPKKVVAINTHFHLDGTGGNEIYKKMGAETWSSDLTKQLRLEENKKDRIKAAEFYKNEDLKRRILSSHPVPADNVFDLKQGKVFSFSNELVEVSFPGPAHSPDNVVVYFPKKKLLFGGCMIKPKELGYLGDANVKAWPDSARRLKKFDAKIVIPGHGEWGGPEMVNKTIKVAEKAVGEMRL
- Km [1]: 50 µM
- kcat [1]: 37 s⁻¹
- Km [2]: 550 µM
- kcat [2]: 1400 s⁻¹
- Km [3]: 33 µM
- kcat [3]: 190 s⁻¹
- Km [4]: 6.5 µM
- kcat [4]: 26 s⁻¹
- Km [5]: 30 µM
- kcat [5]: 110 s⁻¹
- Km [6]: 21 µM
- kcat [6]: 270 s⁻¹
- kcat/Km [7]: 740000 M⁻¹ s⁻¹
- kcat/Km [8]: 2.5e+06 M⁻¹ s⁻¹
- kcat/Km [9]: 5.8e+06 M⁻¹ s⁻¹
- kcat/Km [10]: 4e+06 M⁻¹ s⁻¹
- kcat/Km [11]: 3.7e+06 M⁻¹ s⁻¹
- kcat/Km [12]: 1.3e+07 M⁻¹ s⁻¹

B2: Carbapenem-hydrolyzing beta-lactamase KPC (Klebsiella pneumoniae), Q9F663 (protein)
chain: MSLYRRLVLLSCLSWPLAGFSATALTNLVAEPFAKLEQDFGGSIGVYAMDTGSGATVSYRAEERFPLCSSFKGFLAAAVLARSQQQAGLLDTPIRYGKNALVPWSPISEKYLTTGMTVAELSAAAVQYSDNAAANLLLKELGGPAGLTAFMRSIGDTTFRLDRWELELNSAIPGDARDTSSPRAVTESLQKLTLGSALAAPQRQQFVDWLKGNTTGNHRIRAAVPADWAVGDKTGTCGVYGTANDYAVVWPTGRAPIVLAVYTRAPNKDDKHSEAVIAAAARLALEGLGVNGQ
- Km [13]: 230 µM
- kcat [13]: 0.38 s⁻¹
- Km [14]: 30 µM
- kcat [14]: 60 s⁻¹
- Km [15]: 90 µM
- kcat [15]: 31 s⁻¹
- Km [16]: 13 µM
- kcat [16]: 3.6 s⁻¹
- Km [17]: 1.6 µM
- kcat [17]: 0.55 s⁻¹
- Km [18]: 510 µM
- kcat [18]: 390 s⁻¹
- kcat/Km [19]: 1700 M⁻¹ s⁻¹
- kcat/Km [20]: 2e+06 M⁻¹ s⁻¹
- kcat/Km [21]: 340000 M⁻¹ s⁻¹
- kcat/Km [22]: 280000 M⁻¹ s⁻¹
- kcat/Km [23]: 340000 M⁻¹ s⁻¹
- kcat/Km [24]: 760000 M⁻¹ s⁻¹
